The results in this text go back to article PMC5372380.

The target in this assay is BG505 SOSIP.664 trimer, His-tagged (HIV-1 isolate BG505). Put plainly: SPR. A general note: Surface plasmon resonance follows binding to a sensor surface in real time, without labels.

As for ACS202 Fab, the stoichiometry N (mAb per trimer) was determined as 3.
